# T1: human Nup88 N-terminal domain (residues 1–493) (human, UniProt Q99567 1-493)
# T1 sequence (looked up): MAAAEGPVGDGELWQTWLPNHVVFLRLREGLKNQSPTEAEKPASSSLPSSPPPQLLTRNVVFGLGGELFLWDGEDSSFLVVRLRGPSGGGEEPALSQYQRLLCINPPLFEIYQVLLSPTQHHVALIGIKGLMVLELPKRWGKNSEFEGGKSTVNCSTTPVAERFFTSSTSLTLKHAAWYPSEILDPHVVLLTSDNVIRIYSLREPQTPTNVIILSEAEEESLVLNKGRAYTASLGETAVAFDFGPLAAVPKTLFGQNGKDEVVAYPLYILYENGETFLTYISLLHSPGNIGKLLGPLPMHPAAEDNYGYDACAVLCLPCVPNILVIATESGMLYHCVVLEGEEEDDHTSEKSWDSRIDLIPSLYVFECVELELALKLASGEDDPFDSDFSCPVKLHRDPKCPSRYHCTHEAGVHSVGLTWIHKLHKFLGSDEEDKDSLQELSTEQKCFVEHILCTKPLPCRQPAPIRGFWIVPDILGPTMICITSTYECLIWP
# B1: mouse Nup98 autoproteolytic domain (residues 732–880) (domain or fragment, UniProt Q6PFD9 732-880, looked up)
# chain: AGIVLTKVGYYTIPSMDDLAKITNEKGECIVSDFTIGRKGYGSIYFEGDVNLTNLNLDDIVHIRRKEVIVYVDDNQKPPVGEGLNRKAEVTLDGVWPTDKTSRCLIKSPDRLADINYEGRLEAVSRKQGAQFKEYRPETGSWVFKVSHF
# Assays:
# [1] = biological target: T1, human Nup88 N-terminal domain (residues …); assay: SEC-MALS
# [2] = biological target: yNup82^NTD•yNup159^T pair (S. cerevisiae, UniProt P40368 1-452; P40477 1425-1460); assay: SEC-MALS
# yNup82^NTD•yNup159^T pair, sequence (P40368 1-452, chain 1 of 2): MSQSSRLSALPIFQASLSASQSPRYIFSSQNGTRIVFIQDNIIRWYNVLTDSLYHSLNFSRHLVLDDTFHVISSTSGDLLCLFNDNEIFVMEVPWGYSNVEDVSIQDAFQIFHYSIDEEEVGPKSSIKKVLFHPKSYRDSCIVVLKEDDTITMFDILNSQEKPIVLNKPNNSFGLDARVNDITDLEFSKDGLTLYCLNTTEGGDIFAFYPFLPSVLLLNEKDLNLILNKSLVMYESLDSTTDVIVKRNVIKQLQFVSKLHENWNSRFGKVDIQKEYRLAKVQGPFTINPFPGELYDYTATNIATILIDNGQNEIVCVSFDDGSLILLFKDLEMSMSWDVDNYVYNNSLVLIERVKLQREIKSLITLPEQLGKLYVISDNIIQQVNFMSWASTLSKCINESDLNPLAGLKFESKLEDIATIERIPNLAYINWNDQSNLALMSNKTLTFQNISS
# yNup82^NTD•yNup159^T pair, sequence (P40477 1425-1460, chain 2 of 2): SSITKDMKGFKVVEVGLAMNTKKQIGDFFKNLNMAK
binder,measurement,setting,value
B1,stoichiometry N,[1],1
same,stoichiometry N,[2],1
